Patent US20150132313A1
Values belong to the substance of their own block, whether it stands above or below them.

Legend:
human leukocyte IFN = experiment: cell-based or functional assay
IFNα2a (human) = IFNα2a (human) (UniProt P01563); experiment: cell-based or functional assay

MEDI-545, sequence (VH): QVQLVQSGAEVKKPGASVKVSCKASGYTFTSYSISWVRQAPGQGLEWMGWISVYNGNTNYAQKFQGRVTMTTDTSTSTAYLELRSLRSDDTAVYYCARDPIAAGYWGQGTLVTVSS
MEDI-545, sequence (VL): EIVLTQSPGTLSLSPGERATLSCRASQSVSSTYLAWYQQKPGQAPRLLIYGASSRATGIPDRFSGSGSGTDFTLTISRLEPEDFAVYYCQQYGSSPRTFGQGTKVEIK

neutralization of ISG15, USP18 and IFIT2 overexpression in keratinocytes stimulated with 150 I.U./mL leukocyte IFN (human leukocyte IFN): 70 to 100%
HERC5 gene expression (Average), 107 IFN + 545 (107 IFN alone 41.12; 107 VEH 1.00) (IFNα2a (human)): 6.29
HERC5 gene expression (Average), 163 IFN + 545 (163 IFN alone 75.81; 163 VEH 1.05) (IFNα2a (human)): 7.83
HERC5 gene expression (Average), 175 IFN + 545 (175 IFN alone 74.58; 175 VEH 1.19) (IFNα2a (human)): 6.89
IFIT1 gene expression, Average (TAQMAN, whole blood + 100 IU IFNα2a + MEDI-545; donor 107; IFN alone 80.21) (relative expression) (IFNα2a (human)): 13.1
IFIT1 gene expression, Average (TAQMAN, whole blood + 100 IU IFNα2a + MEDI-545; donor 163; IFN alone 51.65) (relative expression) (IFNα2a (human)): 7.6
IFIT1 gene expression, Average (TAQMAN, whole blood + 100 IU IFNα2a + MEDI-545; donor 175; IFN alone 82.98) (relative expression) (IFNα2a (human)): 8.4
IFIT3 gene expression, Average (TAQMAN, whole blood + 100 IU IFNα2a + MEDI-545; donor 107; IFN alone 38.43) (relative expression) (IFNα2a (human)): 6.78
IFIT3 gene expression, Average (TAQMAN, whole blood + 100 IU IFNα2a + MEDI-545; donor 163; IFN alone 25.94) (relative expression) (IFNα2a (human)): 4.58
IFIT3 gene expression, Average (TAQMAN, whole blood + 100 IU IFNα2a + MEDI-545; donor 175; IFN alone 35.02) (relative expression) (IFNα2a (human)): 5.28
IL6ST gene expression, Average (TAQMAN, whole blood + 100 IU IFNα2a + MEDI-545; donor 107; IFN alone 3.54) (relative expression) (IFNα2a (human)): 2.62
IL6ST gene expression, Average (TAQMAN, whole blood + 100 IU IFNα2a + MEDI-545; donor 163; IFN alone 7.69) (relative expression) (IFNα2a (human)): 4.18
IL6ST gene expression, Average (TAQMAN, whole blood + 100 IU IFNα2a + MEDI-545; donor 175; IFN alone 7.62) (relative expression) (IFNα2a (human)): 2.95
IRF7 gene expression, Average (TAQMAN, whole blood + 100 IU IFNα2a + MEDI-545; donor 107; IFN alone 18.53) (relative expression) (IFNα2a (human)): 3.42
IRF7 gene expression, Average (TAQMAN, whole blood + 100 IU IFNα2a + MEDI-545; donor 163; IFN alone 17.16) (relative expression) (IFNα2a (human)): 2.92
IRF7 gene expression, Average (TAQMAN, whole blood + 100 IU IFNα2a + MEDI-545; donor 175; IFN alone 24.65) (relative expression) (IFNα2a (human)): 2.43
LY6E gene expression, Average (TAQMAN, whole blood + 100 IU IFNα2a + MEDI-545; donor 107; IFN alone 19.09) (relative expression) (IFNα2a (human)): 3.5
LY6E gene expression, Average (TAQMAN, whole blood + 100 IU IFNα2a + MEDI-545; donor 163; IFN alone 13.52) (relative expression) (IFNα2a (human)): 4.8
LY6E gene expression, Average (TAQMAN, whole blood + 100 IU IFNα2a + MEDI-545; donor 175; IFN alone 19.32) (relative expression) (IFNα2a (human)): 3.74
MARCKS gene expression, Average (TAQMAN, whole blood + 100 IU IFNα2a + MEDI-545; donor 163; IFN alone 2.59) (relative expression) (IFNα2a (human)): 1.55
MARCKS gene expression, Average (TAQMAN, whole blood + 100 IU IFNα2a + MEDI-545; donor 175; IFN alone 2.59) (relative expression) (IFNα2a (human)): 0.55
OAS1 gene expression (Average), 107 IFN + 545 (107 IFN alone 15.11; 107 VEH 1.00) (IFNα2a (human)): 3.45
OAS1 gene expression (Average), 163 IFN + 545 (163 IFN alone 14.19; 163 VEH 0.77) (IFNα2a (human)): 3.05
OAS1 gene expression (Average), 175 IFN + 545 (175 IFN alone 22.09; 175 VEH 1.62) (IFNα2a (human)): 4.04
OAS3 gene expression (Average), 107 IFN + 545 (107 IFN alone 49.04; 107 VEH 1.00) (IFNα2a (human)): 7.03
OAS3 gene expression (Average), 163 IFN + 545 (163 IFN alone 42.01; 163 VEH 0.49) (IFNα2a (human)): 14.6
OAS3 gene expression (Average), 175 IFN + 545 (175 IFN alone 37.87; 175 VEH 1.27) (IFNα2a (human)): 3.92
RAB8B gene expression, Average (TAQMAN, whole blood + 100 IU IFNα2a + MEDI-545; donor 163; IFN alone 2.20) (relative expression) (IFNα2a (human)): 1.18
RAB8B gene expression, Average (TAQMAN, whole blood + 100 IU IFNα2a + MEDI-545; donor 175; IFN alone 2.63) (relative expression) (IFNα2a (human)): 1.15
RSAD2 gene expression (Average), 107 IFN + 545 (107 IFN alone 109.64; 107 VEH 1.00) (IFNα2a (human)): 9.88
RSAD2 gene expression (Average), 163 IFN + 545 (163 IFN alone 71.47; 163 VEH 0.56) (IFNα2a (human)): 4.39
RSAD2 gene expression (Average), 175 IFN + 545 (175 IFN alone 126.27; 175 VEH 1.88) (IFNα2a (human)): 8.43
Substance: MEDI-545 (antibody)

HERC5 gene expression (Average), 107 IFN + R347 (107 IFN alone 41.12; 107 VEH 1.00) (IFNα2a (human)): 55
HERC5 gene expression (Average), 163 IFN + R3437 (163 IFN alone 75.81; 163 VEH 1.05) (IFNα2a (human)): 95.4
HERC5 gene expression (Average), 175 IFN + R347 (175 IFN alone 74.58; 175 VEH 1.19) (IFNα2a (human)): 98.2
OAS1 gene expression (Average), 107 IFN + R347 (107 IFN alone 15.11; 107 VEH 1.00) (IFNα2a (human)): 17.8
OAS1 gene expression (Average), 163 IFN + R3437 (163 IFN alone 14.19; 163 VEH 0.77) (IFNα2a (human)): 22.4
OAS1 gene expression (Average), 175 IFN + R347 (175 IFN alone 22.09; 175 VEH 1.62) (IFNα2a (human)): 15.2
OAS3 gene expression (Average), 107 IFN + R347 (107 IFN alone 49.04; 107 VEH 1.00) (IFNα2a (human)): 76.9
OAS3 gene expression (Average), 163 IFN + R3437 (163 IFN alone 42.01; 163 VEH 0.49) (IFNα2a (human)): 52.6
OAS3 gene expression (Average), 175 IFN + R347 (175 IFN alone 37.87; 175 VEH 1.27) (IFNα2a (human)): 34.9
RSAD2 gene expression (Average), 107 IFN + R347 (107 IFN alone 109.64; 107 VEH 1.00) (IFNα2a (human)): 107
RSAD2 gene expression (Average), 163 IFN + R3437 (163 IFN alone 71.47; 163 VEH 0.56) (IFNα2a (human)): 115
RSAD2 gene expression (Average), 175 IFN + R347 (175 IFN alone 126.27; 175 VEH 1.88) (IFNα2a (human)): 91
Substance: R347 (antibody)
